In test [1] the target is T1, human IL-13 (human, UniProt P35225 35-146, biotinylated on the Biacore chip). The test can be described thus: cell-based or functional assay.
The target in test [2] is T1, human IL-13. Put plainly: IL-13 sandwich ELISA, competition with coating antibody. The procedure:
(§1) A MAXISORP™ plate (high protein binding ELISA plate, Nunc, Denmark) was coated overnight with 2.5 μg/ml coating antibody (Module Set, Bender MedSystems, Vienna, Austria), then washed once with 0.05% (v/v) Tween 20 in PBS before blocking with 0.5% (w/v) BSA 0.05% (v/v) Tween 20 in PBS. […] The plate was then incubated with TMB substrate (KPL, Gaithersburg, USA), and the reaction was stopped by the addition of HCl and the absorbance read at 450 nm.
In general terms: An ELISA detects its analyte on a solid surface through an enzyme-linked reagent.

Test [3] concerns the target T1, human IL-13. Put plainly: IL-13 receptor I RBA: FMAT beads, IL-13R alpha1/Fc. As for the experimental part:
(§2) The plate was incubated for seven hours before being read in the 8200 cellular detection system (Applied Biosystems).
This molecule was PEGylated via the C terminus using PEG-Maleimide with a branched 40K PEG2-MAL moiety.

For test [4], the target named is T1, human IL-13. The test can be described thus: cell-based or functional assay. This is another data set of the same source.
The target in test [5] is T1, human IL-13. Put plainly: IL-13 receptor I RBA: FMAT beads, IL-13R alpha1/Fc. As for the experimental part:
as §2
The source holds these as a separate data set.

Test [6] deals with T1, human IL-13. Put plainly: assay not named ('Potency IC50').
Test [7] addresses T1, human IL-13. Put plainly: IL-13 receptor binding assay (receptor chain not stated).
The target of test [8] is T2, human IL-4 (human, UniProt P05112 25-153, biotinylated in the receptor binding assay and on the Biacore chip).
T2 sequence (looked up): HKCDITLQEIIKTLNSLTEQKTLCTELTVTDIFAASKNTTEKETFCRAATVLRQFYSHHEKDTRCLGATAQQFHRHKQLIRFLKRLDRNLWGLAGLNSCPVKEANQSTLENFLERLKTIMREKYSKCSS
The test can be described thus: cell-based or functional assay.

A further test has as its target T3, rhesus IL-4 (rhesus, UniProt P51492 25-153).
T3 sequence (looked up): T2 sequence (looked up) with K2N, D4H, T6A, Q8R, K12E, E26K, V29I, F33L, N111D
Put plainly: inferred from TF-1 proliferation with rhesus IL-4. As for the experimental part:
The mixture was incubated for 72 hours at 37° C. 5% CO₂. […] 96® reagent (colorometric reagent for determining viability, Promega, Madison, USA) was then added and the number of cells per well was quantified by measuring the absorbance at 490 nm.
A dose-response of the dAb will determine the ND50 in this set up.

In test [9] the target is T1, human IL-13. Put plainly: cell-based or functional assay. The source holds these as a separate data set.
Another test addresses cynomolgous IL-13 (cynomolgous, UniProt Q0PW92 19-132, The Biacore assay used biotinylated cIL-13 according to our card. The biotin cannot be carried in the letters.). The test can be described thus: cell-based or functional assay.
Test [10] deals with T1, human IL-13. Put plainly: DOM10 RBA (IL-13 sandwich ELISA per paragraph 473). The procedure: as §1
These in-line fusions were constructed and expressed as described above. […] After this incubation, the level of cell proliferation was determined.

Test [11] has as its target T2, human IL-4. Put plainly: IL-4 RBA: ELISA, IL-4R/Fc coated, biotinylated IL-4. The source says:
The wells were washed three times with 0.1% (v/v) Tween 20 in PBS, followed by three washes with PBS, before blocking with 2% (w/v) BSA in PBS. […] The reaction was stopped by the addition of HCl and the absorbance read at 450 nm.

Where a chain is given by its changes, count along the chain named. “And” between values parts separate entries of the source, which are not always exact repeats. Equal values may be shown once.

Chain of cynomolgous IL-13 (Q0PW92 entry or part of it limits assumed, form in doubt): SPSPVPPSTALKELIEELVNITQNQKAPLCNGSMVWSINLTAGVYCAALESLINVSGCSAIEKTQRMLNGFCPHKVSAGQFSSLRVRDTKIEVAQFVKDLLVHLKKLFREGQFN
T1 sequence (P35225 35-146 limits assumed): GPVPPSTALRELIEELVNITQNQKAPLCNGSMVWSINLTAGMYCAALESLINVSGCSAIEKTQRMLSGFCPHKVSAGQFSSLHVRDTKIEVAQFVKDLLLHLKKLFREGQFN

B1: DOM10-53-234 (other)
VH: GVQLLESGGGLVQPGGSLRLSCAASGFIFAWYDMGWARQAPGKGLEWVSSIDWHGNVTYYADSVKGRFTISRDNSKNTLYLQMNSLRAEDTAVYYCATAEDEPGYDYWGQGTLVTVSS
notes: VH dAb
Broadly, the IC50 is the concentration at which inhibition is half-maximal. On to B1, for which the “ND50, IL-13 induced TF-1 cell proliferation” value with human IL-13 [1] worked out at 43 nM. Further, the IC50 with human IL-13 [2] was 0.087 nM and 0.081 nM and 0.04 nM.

B2: DOM10-53-338 (other)
VH: B1 VH with G1E, H54R
notes: VH dAb
B2 returned an IC50 with human IL-13 [3] of 0.387 nM. Further, the “IC50, IL-13 induced TF-1 proliferation” value with human IL-13 [4] worked out at 0.423 nM.

B3: DOM10-53 (other)
VH: B1 VH with I28T, W53D, H54S, N56T, V57Q, D101R, E102D, P103D, G104T, Y105F
notes: VH dAb
As to B3, the figures for the 50% inhibitory concentration (IC50) in the test with human IL-13 [5] and with human IL-13 [6] were 150 nM and 100 nM, respectively.

B4: DOM10-53-612 (other)
VH: B1 VH with I28A, W31A, A37V, H54K, N56M, V57E
notes: VH dAb
In the test with human IL-13 [6], B4 gave an IC50 of 20 nM.

B5: DOM10-53-338 40K PEG2 NHS (other)
VH: B1 VH with G1E, H54R
modifications: 40K PEG2-NHS on surface lysine residues (positions not stated)
notes: also called 40K PEGylated DOM10-53-338 dAb
Regarding B5, the IC50 in the test with human IL-13 [3] was 0.226 nM. In addition, in the test with human IL-13 [4], the “IC50, IL-13 induced TF-1 proliferation” value turned out to be 0.231 nM.

B6: DOM10-53-338 30K PEG ALD (other)
VH: B1 VH with G1E, H54R
modifications: 30K PEG-ALD on the N-terminus (alpha-amino group)
notes: also called 30K PEGylated DOM10-53-338 dAb
B6: the IC50 in the test with human IL-13 [3] is 0.169 nM. Besides, the “IC50, IL-13 induced TF-1 proliferation” value with human IL-13 [4] came to 0.181 nM.

B7: DOM10-53-396 (other)
VH: B1 VH with D52G
notes: VH dAb
As to B7, the IC50 with human IL-13 [2] is 0.055 nM and 0.03 nM.

B8: DOM10-53-343 (other)
VH: B1 VH with G1E, N56E
notes: VH dAb
With B8, the half-inhibitory concentration (IC50) came out at 0.136 nM in the test with human IL-13 [3] and 0.23 nM with human IL-13 [7].

B9: DOM9-155-11 (other)
VL: DIQMTQSPSSLSASVGDRVTITCRASRNIGDWLHWYQQKPGKAPKLLIAWASTLDSGVPSRFSGSGSGTDFTLTISSLQPEDFATYYCLQEGWGPPTFGQGTKVEIKR
B9: the “average inhibition of HDM induced PBMC proliferation, 100 nM dAb, responding donors” value with human IL-4 [8] was 34%.

B10: DOM9-155-5 (other)
VL: B9 VL with R27L, N28D
notes: Vk dAb
Take B10: the binding result in the test with rhesus IL-4 is listed as “binds”.

B11: DOM10-53-343 40K PEG2 MAL (other)
VH: EVQLLESGGGLVQPGGSLRLSCAASGFIFAWYDMGWARQAPGKGLEWVSSIDWHGEVTYYADSVKGRFTISRDNSKNTLYLQMNSLRAEDTAVYYCATAEDEPGYDYWGQGTLVTVSSC
modifications: branched 40K PEG2-MAL on the C-terminal cysteine
In the case of B11, the IC50 with human IL-13 [3] was 0.033 nM.

B12: DOM10-275-94 (other)
VH: EVQLLESGGGLVQPGGSLRLSCAASGFTFDVAEMDWVRQAPGKGLEWVSTISPSRRGTYYADSVKGRFTISRDNSKNTLYLQMNSLRAEDTAVYYCAKAYTGRSWWGPGTLVTVSS
Consider B12, for which the “EC50, HEK293 STAT6 SEAP reporter assay, hIL-13” value (“EC50 … hIL-13” below) with human IL-13 [9] amounted to 2.3 nM. Also, the “EC50, HEK293 STAT6 SEAP reporter assay, cIL-13” value (“EC50 … cIL-13” for short) with cynomolgous IL-13 turned out to be 2 nM.

B13: DOM10-275-101 (other)
VH: B12 VH with E1G, A23V, W105L
For B13, the “EC50 … hIL-13” value with human IL-13 [9] is 3.6 nM and 2 nM. Besides, the “EC50 … cIL-13” value in the test with cynomolgous IL-13 was found to be 1.8 nM.

B14: DOM10-275-99 (other)
VH: B12 VH with Q3H, V31S, V93I, W105Y
With B14, the “EC50 … hIL-13” value with human IL-13 [9] worked out at 2.8 nM. The “EC50 … cIL-13” value with cynomolgous IL-13 came out at 2 nM.

B15: DOM10-275-100 (other)
VH: B12 VH with E1G, V31S, W105Y
Regarding B15, the “EC50 … hIL-13” value in the test with human IL-13 [9] was found to be 2.8 nM. The “EC50 … cIL-13” value with cynomolgous IL-13 stood at 2.5 nM.

B16: DOM9-112-210-DOM10-275-1 (bispecific antibody)
chain: EVQLLESGGGLVQPGGSLRLSCAASGFTFRNFGMGWVRQAPGKGLEWVSWIISSGTETYYADSVKGRFTISRDNSKNTLYLQMNSLRAEDTAVYYCAKSLGRFDYWGQGTLVTVSSASTKGPSEVQLLESGGGLVQPGGSLRLSCAASGFTFDREEMDWVRQAPGKGLEWVSTISPSGRKTYYADSVKGRFTISRDNSKNTLYLQMNSLRAEDTAVYYCAKAYTGFDYWGQGTLVTVSS
As for B16, the IC50 in the test with human IL-13 [10] was determined as 44.9 nM.

B17: DOM9-112-210-DOM10-53-546 (bispecific antibody)
chain: EVQLLESGGGLVQPGGSLRLSCAASGFTFRNFGMGWVRQAPGKGLEWVSWIISSGTETYYADSVKGRFTISRDNSKNTLYLQMNSLRAEDTAVYYCAKSLGRFDYWGQGTLVTVSSASTKGPSGVQLLESGGGLVQPGGSLRLSCAASGFVFPWYDMGWVRQAPGKGLEWVSSIDWKGGKTYYADSVKGRFTISRDNSKNTLYLQMNSLRAEDTAVYYCATAEDEPGYDYWGQGTLVTVSS
notes: in-line fusion, from pDOM5
By EC50 is commonly meant the concentration at which the effect is half-maximal. Higher therefore signals a less potent agent. B17: the IC50 with human IL-4 [11] is 4.3 nM and 6 nM. The molecule also gave an EC50 in the test with human IL-13 [2] of 1 nM.

B18: DOM10-273 (other)
VH: EVQLLESGGGLVQPGGSLRLSCAASGFTFELEEMDWVRQAPGKGLEWVSSISGSGGSTYYADSVKGRFTISRDNSKNTLYLQMNSLRAEDTAVYYCAKAYTGFDYWGQGTLVTVSS
notes: VH dAb
In the test with human IL-13 [5], B18 yielded a concentration for half-maximal inhibition (IC50) of 600 nM.

B19: DOM10-275 (other)
VH: B18 VH with E30D, L31R, S50T, G53P, G56R, S57K, A99H, Y100G
notes: VH dAb
Consider B19, for which the half-inhibitory concentration (IC50) with human IL-13 [5] came to 1000 nM.

B20: DOM10-416 (other)
VH: B18 VH with E30K, L31G, E32S, S50T, G53A, S54D, G56R, S57E, A99S, G102S
notes: VH dAb
The molecule B20 came in with an IC50 with human IL-13 [5] of 6000 nM.

B21: DOM10-276 (other)
VH: B18 VH with E30R, L31D, E32Y, S52G, G53P, G56S, S57E, G102S
notes: VH dAb
Turning to B21, the IC50 with human IL-13 [5] is 3000 nM.

B22: DOM10-275-1-DOM9-155-78 (bispecific antibody)
chain: EVQLLESGGGLVQPGGSLRLSCAASGFTFDREEMDWVRQAPGKGLEWVSTISPSGRKTYYADSVKGRFTISRDNSKNTLYLQMNSLRAEDTAVYYCAKAYTGFDYWGQGTLVTVSSASTKGPSDIQMTQSPSSLSASVGDRVTITCRASRHIGDWLHWYQQKPGKAPKLLIAWASTLDSGVPSRFSGSGSGTDFTLTISSLQPEDFATYYCLQEGWGPPTFGQGTKVEIKR
With B22, in the test with human IL-13 [10], the IC50 was determined as 39.2 nM.

B23: DOM9-112-22 (other)
VH: EVQLLESWGGLVQPGGSLRLSCAASGFTFRNYGMAWVRQAPGKGLEWISWIDASGTETYYADPVKGRFTISRDNSKNTLYLQMNSLRAEDTAVYYCAKSLGRFDYWGQGTLVTVSS
Regarding B23, the “average inhibition of HDM induced PBMC proliferation, 100 nM dAb, responding donors” value with human IL-4 [8] was determined as 23%.

B24: DOM10-176 (other)
VL: DIQMTQSPSSLSASVGDRVTITCRASQWIGPYLNWYQQKPGKAPKLLIYMGSYLQSGVPSRFSGSGSGTDFTLTISSLQPEDFATYYCQQDLYPPYTFGQGTKVEIKR
notes: Vk dAb
In the test with human IL-13 [5], B24 displayed an IC50 of 100 nM.

Values taken from patent publication US20090060916A1 (published 2009).
